The labels stand for the following.
B1: PM2 (Protein M TD residues 74 to 482, Tyr158 to phenylalanine) (other)
chain: HHHHHHSSGLVPRGSHMSLSLNDGSYQSEIDLSGGANFREKFRNFANELSEAITNSPKGLDRPVPKTEISGLIKTGDNFITPSFKAGYYDHVASDGSLLSYFQSTEYFNNRVLMPILQTTNGTLMANNRGYDDVFRQVPSFSGWSNTKATTVSTSNNLTYDKWTYFAAKGSPLYDSYPNHFFEDVKTLAIDAKDISALKTTIDSEKPTYLIIRGLSGNGSQLNELQLPESVKKVSLYGDYTGVNVAKQIFANVVELEFYSTSKANSFGFNPLVLGSKTNVIYDLFASKPFTHIDLTQVTLQNSDNSAIDANKLKQAVGDIYNYRRFERQFQGYFAGGYIDKYLVKNVNTNKDSDDDLVYRSLKELNLHLEEAYREGDNTYYRVNENYYPGASIYENERASRDSEFQNEILKRAEQNGVTFDENIKR
B2: Mpn400 (residues 41 to 582), His-tagged recombinant, lacking the membrane domain (other)
chain: HHHHHHSSGLVPRGSHMNEVLRLQSGETLIASGRSGNLSFQLYSKVNQNAKSKLNSISLTDGGYRSEIDLGDGSNFREDFRNFANNLSEAITDAPKDLLRPVPKVEVSGLIKTSSTFITPNFKAGYYDQVAADGKTLKYYQSTEYFNNRVVMPILQTTNGTLTANNRAYDDIFVDQGVPKFPGWFHDVDKAYYAGSNGQSEYLFKEWNYYVANGSPLYNVYPNHHFKQIKTIAFDAPRIKQGNTDGINLNLKQRNPDYVIINGLTGDGSTLKDLELPESVKKVSIYGDYHSINVAKQIFKNVLELEFYSTNQDNNFGFNPLVLGDHTNIIYDLFASKPFNYIDLTSLELKDNQDNIDASKLKRAVSDIYIRRRFERQMQGYWAGGYIDRYLVKNTNEKNVNKDNDTVYAALKDINLHLEETYTHGGNTMYRVNENYYPGASAYEAERATRDSEFQKEIVQRAELIGVVFEYGVKNLRPGLKYTVKFESPQEQVALKSTDKFQPVIGSVTDMSKSVTDLIGVLRDNAEILNITNVSKDETVVAELKEKLDRENVFQEIRT
B3: 13PL IgG, monoclonal immunoglobulin from multiple myeloma patient 13PL (human IgG1κ) (antibody, V domains shown)
VH: AVSLVESGGGTVEPGSTLRLSCAASGFTFGSYAFHWVRQAPGDGLEWVAFISYNGSSKYYANFVKGRFTISRDNSSNTLSLQMNSLKASDTAVYYCARAPDCAQADCHKGAFGYWGQGTLVTVSS
VL: DIEMTQSPSSLSASTGDKVTITCQASQDIAQFLDWYQQRPGDTPKLLIYDASNLAIGVPSRFTGSGSGTDFTFTISSLQPEDIAVYYCQHYDDFPISFGPGTKLETKR
notes: also called multiple myeloma antibody 13PL; Multiple Myeloma antibody (13PL)
B4: recombinant Protein M TD (His-tagged MG281 residues 74 to 468) (other)
chain: HHHHHHSSGLVPRGSHMSLSLNDGSYQSEIDLSGGANFREKFRNFANELSEAITNSPKGLDRPVPKTEISGLIKTGDNFITPSFKAGYYDHVASDGSLLSYYQSTEYFNNRVLMPILQTTNGTLMANNRGYDDVFRQVPSFSGWSNTKATTVSTSNNLTYDKWTYFAAKGSPLYDSYPNHFFEDVKTLAIDAKDISALKTTIDSEKPTYLIIRGLSGNGSQLNELQLPESVKKVSLYGDYTGVNVAKQIFANVVELEFYSTSKANSFGFNPLVLGSKTNVIYDLFASKPFTHIDLTQVTLQNSDNSAIDANKLKQAVGDIYNYRRFERQFQGYFAGGYIDKYLVKNVNTNKDSDDDLVYRSLKELNLHLEEAYREGDNTYYRVNENYYPGASIYENERASRDSEFQNEILKR

The target in experiment [1] is T1, Human IgG4κ (Sigma Aldrich catalog no. 14639), myeloma antibody. As to the kind of experiment: Biolayer Interferometry; antibody (printed IgG4λ) on protein G sensors, PM2 in solution. (In general: In BLI a coated tip is dipped into the sample, and binding shifts an interference pattern.)
Experiment [2] deals with T2, Human IgG3κ (Sigma Aldrich catalog no. 15654), myeloma antibody.
T2 construct: also called IgG3k
As to the kind of experiment: Biolayer Interferometry; antibody (printed IgG3λ) on protein G sensors, PM2 in solution.

The target in experiment [3] is T3, Human IgG2κ (Sigma Aldrich catalog no. 15404), myeloma antibody.
T3 construct: also called IgG2k
As to the kind of experiment: Biolayer Interferometry; antibody on protein G sensors, PM2 in solution.

For experiment [4], the target named is T4, 4PL IgG, human multiple myeloma antibody (Mayo Clinic). The experiment is described as above.
The target of experiment [5] is T5, Human IgG2λ (Sigma Aldrich catalog no. 15279), myeloma antibody.
T5 construct: also called IgG21
The experiment is described as above.

The target in experiment [6] is T3, Human IgG2κ (Sigma Aldrich catalog no. …). Nature of the experiment: Biolayer Interferometry; antibody on protein G sensors, Mpn400 in solution.
Experiment [7] has as its target T4, 4PL IgG, human multiple myeloma …. The experiment is described as above.
The target in experiment [8] is T5, Human IgG2λ (Sigma Aldrich catalog no. …). Described as above.
For experiment [9], the target named is T6, Human IgG1κ (Sigma Aldrich catalog no. 15154), myeloma antibody.
T6 construct: also called IgG1k
Described as above.

Experiment [10] addresses T2, Human IgG3κ (Sigma Aldrich catalog no. …). The experiment is described as above.
Experiment [11] has as its target T1, Human IgG4κ (Sigma Aldrich catalog no. …). The experiment is described as above.
In experiment [12] the target is B2. The experiment is described as above.
For experiment [13], the target named is T7, Fab CR9114 (against influenza hemagglutinin, λ light chain).
T7 construct: also called CR9114 Fab
Nature of the experiment: Biolayer Interferometry (Octet Red).

Experiment [14] has as its target T8, PGT135 Fab (against HIV-1 gp120, κ light chain).
T8 construct: also called Fab PGT135
As to the kind of experiment: Biolayer Interferometry (Octet Red).

By Kd is commonly meant the equilibrium constant for the complex coming apart. In the case of B1, the Kd in experiment [1] amounted to 1.84 nM; in experiment [2] it was 6.6 nM; in experiment [3], 9.56 nM; in experiment [4], 0.6 nM; in experiment [5], 8.9 nM.

On to B2, for which the Kd in [6] worked out at 6.23 nM; in experiment [7], 0.6 nM; in experiment [8], 13 nM; in experiment [9] it was 0.48 nM; in [10], 0.93 nM; in experiment [11] it was 0.43 nM.

In the case of B3, the Kd in experiment [12] is 0.5 nM.

As to B4, the results for the Kd in experiment [13] and in experiment [14] were 1.9 nM and 3.7 nM, respectively.

These data come from US20170320921A1 (Scripps Research, published 2017).
